Source: patent publication US20060003399A1, “High throughput actin polymerization assay” (Cytokinetics, Inc., priority 2004, published 2006)

Key:
Experiment in all cases: cell-based or functional assay
Arp2/3 complex (human) = Arp2/3 complex (human) (UniProt P61158)
[1] = target: Full length human WASP, TAP-tagged at the C-terminus (Myc-WASP-TAP) (human)
[2] = target: Full length human N-WASP, TAP-tagged at the C-terminus (Myc-N-WASP-TAP) (human)
[3] = target: Actin (G-actin with pyrene-actin) (chicken)

Question: With “Full length human WASP, TAP-tagged at the C-terminus (Myc-WASP-TAP)” as the substance, how does the activity relative to 105 WASP (fold against 105 WASP) (Arp2/3 complex (human)) read?
Answer: Its activity relative to 105 WASP (fold against 105 WASP) is 20.

Question: And the concentration giving maximal concentration of barbed ends (500 nM Cdc42, 2.5 nM Arp2/3, 3.5 uM actin) (Arp2/3 complex (human))?
Answer: The concentration giving maximal concentration of barbed ends (500 nM Cdc42, 2.5 nM Arp2/3, 3.5 uM actin) was 3 nM.

Question: What about the potency relative to the VCA/WA domain (fold against VCA/WA domain) (Arp2/3 complex (human)) of the same substance?
Answer: The potency relative to the VCA/WA domain (fold against VCA/WA domain) was over 70.

Question: Which results are given for GST-tev-Cdc42 (enzyme)?
Answer: EC50 [1]: 0.016 µM; EC50 [2]: 0.287 µM

Question: Which lag phase of actin polymerization at 100 nM formin [3] does the source give for “GST tagged C. albicans FH1-FH2 domain (from UniProt Q5AL52 972-1598)” here?
Answer: The lag phase of actin polymerization at 100 nM formin was under 100 s.

Question: What about the time to saturation phase of actin polymerization at 100 nM formin [3] of the same substance?
Answer: Its time to saturation phase of actin polymerization at 100 nM formin is 400 s.

Question: For “His6 tagged C. albicans FH1-FH2 domain (from UniProt Q5AL52 972-1598)”, which formin concentration to observe saturation of actin polymerization [3] is on record?
Answer: The formin concentration to observe saturation of actin polymerization was 300 to 500 nM.

Question: How did the Barbed ends [1] turn out when GST-Nck2 was run?
Answer: The Barbed ends was 2.6 nM.

Question: What about the Barbed ends % of max. [1] of the same substance?
Answer: The Barbed ends % of max. was 50%.

Question: And the EC50 [1]?
Answer: Its EC50 is 0.012 µM.

Question: What about the Barbed ends [2] of the same substance?
Answer: The Barbed ends was 3.5 nM.

Question: What about the Barbed ends % of max. [2] of the same substance?
Answer: The Barbed ends % of max. was 78%.

Question: And the EC50 [2]?
Answer: The EC50 was 0.007 µM.
